Laboratory results published in patent US20120316071A1 (published 2012).
One block for each binder: values may come before it.

Experiments:
[1] = target: T1, Recombinant Human DLL4 (R&D Systems Cat#1506-D4/CF) (human, UniProt Q9NR61 27-524); test: ECL multispot (MSD) assay, spotted antigen; Fab 200.00 (head prints uM)
T1 construct: Bought recombinant protein; also called delta-like protein 4

[2] = target: T2, rHuman Erythropoietin R/Fc Chimera, CF (R&D Systems Cat#963-ER) (human, UniProt P19235 25-250); test: MSD multispot ECL, antigen spotted, Fab 0.1 nM; blank spot 201
T2 construct: Bought reagent; also called EPO R/Fc; Epo R
T2 sequence (looked up): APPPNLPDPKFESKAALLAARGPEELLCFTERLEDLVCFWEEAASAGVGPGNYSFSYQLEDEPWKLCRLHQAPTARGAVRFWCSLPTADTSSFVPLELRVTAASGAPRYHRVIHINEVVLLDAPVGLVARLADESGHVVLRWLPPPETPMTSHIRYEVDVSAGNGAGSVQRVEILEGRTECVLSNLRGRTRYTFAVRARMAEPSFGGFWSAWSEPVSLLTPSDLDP

[3] = target: T3, rHuman IGF-1 sR, (IGF-1 sR), CF (R&D Systems Cat#391-GR) (human, UniProt P08069 31-932); test: as above
T3 construct: Bought soluble receptor; also called insulin-like growth factor-1 soluble receptor

[4] = target: T4, rHuman EGF R/Fc Chimera, CF (R&D Systems Cat#344-ER) (human, UniProt P00533 25-645); test: as above
T4 construct: Bought reagent; also called epidermal growth factor receptor

[5] = target: T5, rHuman Notch-1/Fc Chimera, CF (R&D Systems Cat#3647-TK) (human, UniProt P46531 19-526); test: as above
T5 construct: Bought reagent

[6] = target: T6, rHuman HGF R/c-MET/Fc Chimera, CF (R&D Systems Cat#358-MT/CF) (human, UniProt P08581 25-932); test: as above
T6 construct: Bought reagent; also called HGF R/Fc; hepatocyte growth factor receptor

[7] = target: T7, Recombinant Human DLL4 (R&D Systems Cat#1506-D4/CF) (human, UniProt Q9NR61 27-524); test: as above
T7 construct: Bought recombinant protein; also called rHuman DLL4; delta-like protein 4

[8] = target: T8, rHuman CD44/Fc Chimera, CF (R&D Systems Cat#3660-CD) (human, UniProt P16070 21-220); test: as above
T8 construct: Bought reagent

[9] = target: T9, rHuman ErbB2/Fc Chimera, CF (R&D Systems Cat#1129-ER) (human, UniProt P04626 23-652); test: as above
T9 construct: Bought reagent; also called human epidermal growth factor 2 receptor

[10] = target: T3, rHuman IGF-1 sR, (IGF-1 sR), CF (R&D …); test: MSD multispot ECL, antigen spotted, Fab 595.8 nM; blank spot 285
[11] = target: T9, rHuman ErbB2/Fc Chimera, CF (R&D …); test: as above
[12] = target: T10, Recombinant Human DLL4 (R&D Systems Cat#1506-D4/CF) (human, UniProt Q9NR61 27-524); test: Multispot ECL (MSD) titration; antigen spotted on plate; Fab 392.5 nM; blank spot 338
T10 construct: Bought recombinant protein; also called delta-like protein 4; rHuman DLL4

[13] = target: T11, rHuman Erythropoietin R/Fc Chimera, CF (R&D Systems Cat#963-ER) (human, UniProt P19235 25-250); test: as above
T11 construct: Bought Fc chimera; also called EPO R/Fc; EPO R; Fc part of the bought chimera not given
T11 sequence (looked up): T2 sequence (looked up)

[14] = target: T12, rHuman HGF R/c-MET/Fc Chimera, CF (R&D Systems Cat#358-MT/CF) (human, UniProt P08581 25-932); test: as above
T12 construct: Bought Fc chimera; also called HGF R/Fc; hepatocyte growth factor receptor; Fc part of the bought chimera not given

[15] = target: T13, rHuman Notch-1/Fc Chimera, CF (R&D Systems Cat#3647-TK) (human, UniProt P46531 19-526); test: as above
T13 construct: Bought Fc chimera; Fc part of the bought chimera not given

[16] = target: T14, rHuman ErbB2/Fc Chimera, CF (R&D Systems Cat#1129-ER) (human, UniProt P04626 23-652); test: as above
T14 construct: Bought Fc chimera; also called human epidermal growth factor 2 receptor; Fc part of the bought chimera not given

[17] = target: T15, rHuman P-Cadherin/Fc Chimera, CF (R&D Systems Cat#861-PC) (human, UniProt P22223 108-654); test: as above
T15 construct: Bought Fc chimera; Fc part of the bought chimera not given

[18] = target: T16, rHuman IGF-1 sR (IGF-1 sR), CF (R&D Systems Cat#391-GR) (human, UniProt P08069 31-932); test: as above
T16 construct: Bought soluble receptor; also called insulin-like growth factor-1 soluble receptor

[19] = target: T17, rHuman CD44/Fc Chimera, CF (R&D Systems Cat#3660-CD) (human, UniProt P16070 21-220); test: as above
T17 construct: Bought Fc chimera; Fc part of the bought chimera not given

ECL signal/noise ratio [1]: 76.9
B1: Fab VH5-51_IGHD5-18*01>3_IGHJ4*01 G100K/G104T & V3-4_IGLJ1*01 (Fab, V domains shown)
VH: EVQLVQSGAEVKKPGESLKISCKGSGYSFTSYWIGWVRQMPGKGLEWMGIIYPGDSDTRYSPSFQGQVTISADKSISTAYLQWSSLKASDTAMYYCARRKYSYTYDYFDYWGQGTLVTVSS
VL: QTVVTQEPSFSVSPGGTVTLTCGLSSGSVSTSYYPSWYQQTPGQAPRTLIYSTNTRSSGVPDRFSGSILGNKAALTITGAQADDESDYYCVLYMGSGISYVFGTGTKVTVL
notes: Tested as a Fab; The constant parts are the same as for the parent Fab (CH1 with His6/Flag tags, lambda CL); also called KT double mutant; H:KT

ECL signal [2]: 373 ECL signal | ECL signal [3]: 241 ECL signal | ECL signal [4]: 311 ECL signal | ECL signal [5]: 378 ECL signal | ECL signal [6]: 286 ECL signal | ECL signal [7]: 317 ECL signal | ECL signal [8]: 323 ECL signal | ECL signal [9]: 306 ECL signal | ECL signal [10]: 335 ECL signal | ECL signal [11]: 321 ECL signal
B2: Fab VH1-46_IGHD6-6*01_IGHJ1*01 & L6_IGKJ1*01 (Fab, V domains shown)
VH: QVQLVQSGAEVKKPGASVKVSCKASGYTFTSYYMHWVRQAPGQGLEWMGIINPSGGSTSYAQKFQGRVTMTRDTSTSTVYMELSSLRSEDTAVYYCAREEYSSSSAEYFQHWGQGTLVTVSS
VL: not shown
notes: Only variable domains are tied to the molecule; Tested as a Fab made in E. coli: heavy chain from Plasmid A (CH1 constant region, His6 and Flag tags), kappa light chain from Plasmid C (kappa CL); also called parent Hit Fab against DLL4; VH1-46_IGHD6-6*01_IGHJ1*01 & L6_IGKJ1*01 (parental)

ECL signal [12]: 735 | ECL signal [13]: 5860 | ECL signal [14]: 581 | ECL signal [15]: 749 | ECL signal [16]: 539 | ECL signal [17]: 459 | ECL signal [18]: 466 | ECL signal [19]: 498
B3: Fab VH1-46_IGHD3-10*01_IGHJ4*01 & O1_IGKJ1*01 (Fab, V domains shown)
VH: QVQLVQSGAEVKKPGASVKVSCKASGYTFTSYYMHWVRQAPGQGLEWMGIINPSGGSTSYAQKFQGRVTMTRDTSTSTVYMELSSLRSEDTAVYYCAREYYYGSGSYYNDYFDYWGQGTLVTVSS
VL: DIVMTQTPLSLPVTPGEPASISCRSSQSLLDSDDGNTYLDWYLQKPGQSPQLLIYTLSYRASGVPDRFSGSGSGTDFTLKISRVEAEDVGVYYCMQRIEFPSWTFGQGTKVEIKR
notes: Germline library Fab expressed in E. coli; VH was cloned into Plasmid A (CH1 constant region, His6 and Flag tags); The kappa VL was cloned into Plasmid C (kappa CL)
